Assay results published in article PMC8558862, “Imaging of Dysfunctional Elastogenesis in Atherosclerosis Using an Improved Gadolinium-Based Tetrameric MRI Probe Targeted to Tropoelastin” (Journal of Medicinal Chemistry, 2021).
Ends that are not written are not given here. (Gd-DOTA)4‑MI = maleimide-bearing lysine-based tetramer of four Gd(III)-DOTA-monoamide chelates

Key:
[1] = Serum stability by RP-HPLC; details: male, human, 50% (v/v) aqueous pooled human serum
Method: The stabilities of Gd4-TESMA and the parent VVGS-peptide in human serum were evaluated by HPLC (Figure 6). Compounds were incubated up to 120 min, and aliquots were taken at different times: 0, 35, and 120 min.
The serum stabilities of Gd4-TESMA and its parent peptide (VVGS-peptide) were determined in 50% (v/v) aqueous pooled serum from human male AB plasma, which was purchased from Sigma-Aldrich (Milan, Italy). Samples were dissolved in water (6.6 mM), diluted in serum (previously centrifuged at 8000 rpm for 15 min at 4 °C) at a final concentration of 0.6 mM (220 μL), and subsequently incubated at 37 °C. Aliquots (6 μL) taken after 0, 35, and 120 min were diluted in water at a final concentration of 0.06 mM. The samples were analyzed by RP-HPLC using an Atlantis dC18 column, 5 μm, 4.6 × 150 mm, as described in ref ([47]). The amount of intact compound was estimated by integrating the area under the corresponding elution peak monitored at 210 nm. Five replicate experiments for each compound were carried out. The […] (HPLW peptide),[47] unrelated to TESMA, was used as a positive control.

[2] = Relaxometry: water proton longitudinal relaxivity; format: physicochemical; details: 298 K, 3.8 mM HEPES, 150 mM NaCl, pH 7.2
Method: The relaxivity per gadolinium of Gd4-TESMA is 8.5 ± 0.2 mM^–1 s^–1 (at 20 MHz, 298 K, 3.8 mM HEPES, 150 mM NaCl, pH 7.2; Table 1), while that of Gd-TESMA under the same conditions cannot be defined uniquely as it changes with the concentration of the complex.
The water proton longitudinal relaxation rates as a function of the magnetic field strength were measured in aqueous solutions using a Fast Field-Cycling Stelar SmarTracer relaxometer (Stelar s.r.l., Mede (PV), […] MHz proton Larmor frequencies). The relaxometer operates under computer control with an absolute uncertainty in 1/T1 of 1%. […] The ^1H T1 relaxation times were acquired by the standard inversion recovery method with a typical 90° pulse width of 3.5 μs, 16 experiments, and 4 scans. The temperature was controlled using a Stelar VTC-91 airflow heater equipped with a calibrated copper–constantan thermocouple (uncertainty of ±0.1 °C).
MRI data are presented as median ± interquartile range (IQR). […] P values <0.05 were considered statistically significant.

[3] = molecular target: T1, immobilized human recombinant tropoelastin (Homo sapiens, UniProt P15502); test: Surface plasmon resonance binding affinity (kinetic mode, 1:1 Langmuir model); details: SPR Biacore 2000, CM5 chip, 25 °C, HEPES running buffer pH 7.4; mean ± SD of triplicate measurements
T1 construct: purchased Advanced BioMatrix 5052-1MG
T1 sequence (P15502 27-786): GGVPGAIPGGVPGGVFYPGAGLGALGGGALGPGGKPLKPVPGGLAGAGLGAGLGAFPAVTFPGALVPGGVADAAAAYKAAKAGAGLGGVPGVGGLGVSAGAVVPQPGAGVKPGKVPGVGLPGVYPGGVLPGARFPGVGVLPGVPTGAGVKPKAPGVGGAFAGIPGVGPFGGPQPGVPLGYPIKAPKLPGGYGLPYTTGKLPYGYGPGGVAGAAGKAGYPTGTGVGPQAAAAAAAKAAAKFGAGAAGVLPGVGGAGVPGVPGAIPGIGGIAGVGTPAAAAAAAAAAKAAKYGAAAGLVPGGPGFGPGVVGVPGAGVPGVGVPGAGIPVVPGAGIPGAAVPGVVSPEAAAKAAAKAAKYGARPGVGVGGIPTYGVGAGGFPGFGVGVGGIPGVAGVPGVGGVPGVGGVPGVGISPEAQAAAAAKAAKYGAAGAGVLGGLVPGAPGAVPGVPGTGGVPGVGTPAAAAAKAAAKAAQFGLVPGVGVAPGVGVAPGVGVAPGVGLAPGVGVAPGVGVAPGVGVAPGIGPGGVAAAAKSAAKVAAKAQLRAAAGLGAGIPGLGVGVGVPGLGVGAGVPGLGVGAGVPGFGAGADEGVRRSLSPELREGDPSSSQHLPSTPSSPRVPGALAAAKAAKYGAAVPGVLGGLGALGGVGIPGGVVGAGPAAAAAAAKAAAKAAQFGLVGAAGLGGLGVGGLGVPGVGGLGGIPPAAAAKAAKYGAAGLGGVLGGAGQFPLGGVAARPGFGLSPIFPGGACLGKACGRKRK
Method: The binding affinity of Gd-TESMA and Gd4-TESMA to tropoelastin was assessed by surface plasmon resonance (SPR) under the kinetic affinity mode.
The binding affinity between tropoelastin (human recombinant tropoelastin, Advanced BioMatrix, Cat. No. 5052-1MG, Batch No. 7932) and Gd4-TESMA or Gd-TESMA was assessed by surface plasmon resonance (SPR) on a Biacore 2000 instrument (Cytiva). The instrument was equipped with a CM5 sensor chip carrying carboxymethylated dextran (Cytiva). First, the ligand was immobilized on the sensor chip surface by amine coupling: the flow cell was activated for 7 min by a 1-ethyl-3-(3-dimethylaminopropyl)carbodiimide hydrochloride (EDC)/N-hydroxysuccinimide (NHS) mixture. Then, tropoelastin was injected at 200 μM in a 10 mM sodium acetate buffer (pH 4) with a flow rate of 5 μL min^–1 to reach an immobilization level corresponding to 3500–5000 resonance units (R.U.). The remaining active sites were blocked by 1 M of ethanolamine-HCl (pH 8.5) for 7 min. As a control for nonspecific interaction, another flow cell on the CM5 sensor chip was treated in the same manner but without adding tropoelastin. […] The equilibrium dissociation constant (KD) and the kinetic association and dissociation rate constants (ka and kd) were determined by curve-fitting using the 1:1 Langmuir binding model implemented in the Biaevaluation software 4.1.1.[48] […]

[4] = 1H NMRD profile fitting (SBM and Freed theory); format: physicochemical; details: HEPES buffer pH 7.2; Gd-TESMA NMRD at 2.3 mM
Method: Figure 4 ^1H NMRD profiles showing the millimolar relaxivity per gadolinium r1p of Gd-TESMA (2.3 mM, solid symbols) and Gd4-TESMA (1.3 mM, open symbols) in the HEPES buffer (pH 7.2) at 298 K (circles) and 310 K (squares). The solid line represents the best fitting of the experimental points at 310 K to the SBM and Freed theory of paramagnetic relaxation. The following parameters were kept fixed: water diffusion coefficient (D) = 3.1 10^–5 cm^2 s^–1; distance between Gd(III) and the inner sphere water protons (r) = 3.1 Å; number of inner sphere water molecules (q) = 1; and distance of the closest approach of outer-sphere water protons = 3.8 Å. Curve fitting converged to the following: correlation time for molecular reorientation (τR) = 170 ps; residence lifetime of the inner sphere water molecule (τM) = 460 ns; correlation time for electronic relaxation (τv) = 47 ps; and zero-field splitting energy (Δ^2) = 1.3 10^19 s^–2. […]
The water proton longitudinal relaxation rates as a function of the magnetic field strength were measured in aqueous solutions using a Fast Field-Cycling Stelar SmarTracer relaxometer (Stelar s.r.l., Mede (PV), Italy) over a continuum of magnetic field strengths from 0.00024 to 0.25 T (corresponding to 0.01–10 MHz proton Larmor frequencies). […]

[5] = test system: atherosclerotic plaques in the brachiocephalic artery of ApoE–/– mice; test: In vivo LGE MRI at 3 T in atherosclerotic ApoE–/– mice; details: 0.2 mmol kg^–1 i.v.
Method: The Gd4-TESMA probe was assessed for its ability to enhance the MRI signal within plaques in the brachiocephalic artery of an ApoE^–/– murine model of plaque progression and in control nonatherosclerotic mice. For these studies, atherosclerotic ApoE^–/– mice were scanned after the tandem administration of Gd-ESMA, Gd-TESMA (24 h after the Gd-ESMA administration), and finally Gd4-TESMA (24 h after the Gd-TESMA administration; Supporting Information Figure S1). […] All molecular probes were injected at a dose of 0.2 mmol kg^–1 (corresponding to the same dose of injected gadolinium for Gd-ESMA and Gd-TESMA and to a dose of 0.8 mmolGd kg^–1 for Gd4-TESMA). […]
Following a 3D GRE scout scan, contrast-enhanced angiography images were acquired for visualization of the aortic root, aortic arch, and brachiocephalic and carotid arteries with a FOV = 30 × 30 × 8 mm, matrix = 200 × 200, in-plane resolution = 0.15 × 0.15 mm (reconstructed = 0.10 × 0.10 mm), slice thickness = 0.5 mm, TR/TE = 15/6.1 (ms), and flip angle = 40°. […] Late gadolinium enhanced images were acquired with an inversion-recovery 3D fast gradient echo sequence every 30 min for up to 2 h postinjection of the contrast agent and were used to visualize and quantify contrast uptake.

[6] = molecular target: T2, human recombinant tropoelastin (human, UniProt P15502 27-786); test: SPR; Biacore 2000; tropoelastin immobilised on a CM5 chip by amine coupling (3500-5000 R.U.); analyte injected at 20 uL/min for 3 min at 25 °C in HEPES running buffer (pH 7.4, HBS-P) or 10 mM HEPES; control flow cell subtracted; 1:1 Langmuir fit; triplicate; details: both partners purified
T2 construct: tropoelastin (soluble elastin precursor), human, recombinant; also called TE; source: bought: Advanced BioMatrix (Cat. No. 5052-1MG, Batch No. 7932)
T2 sequence (looked up): T1 sequence (P15502 27-786)

Molecule: VVGSPSAQDEASPLS [VVGS-peptide]
- half-life at 0.6 mM [1]: ~45 min
- remaining at 2 h, 0.6 mM [1]: ~20%

Molecule: Gd-TESMA: single Gd-DOTA monoamide unit conjugated with a 15-residue peptide sequence (VVGS-peptide); monomeric counterpart, purchased (VVGSPSAQDEASPLS; also: single Gd-DOTA monoamide unit conjugated, site not given here) [reference compound]
- relaxivity per gadolinium at 18 μM probe ([2]; 18 μM probe, 20 MHz): 6.1 mM^–1 s^–1
- relaxivity r1 at 20 MHz, probe at 1 mM ([2]; 1 mM probe, 20 MHz, mean ± SD): 10.0 ± 0.3 mM^–1 s^–1
- relaxivity r1 at 125 MHz, probe at 1 mM ([2]; 1 mM probe, 125 MHz, mean ± SD): 10.4 ± 0.3 mM^–1 s^–1
- relaxivity per gadolinium at 2.3 mM probe ([2]; 2.3 mM probe, 20 MHz): 12.4 mM^–1 s^–1
- dissociation rate constant kd [3]: 2.3 × 10^–2 ± 0.5 × 10^–2 s^–1
- aggregation (inferred from concentration dependence of relaxivity and NMRD profile) [4]: self-assembled into aggregates with high polydispersity at relatively high concentrations
- vessel wall-to-blood CNR at 0.5 h postinjection ([5]; ApoE–/– mice on HFD 16 weeks, 3 T LGE MRI, 0.5 h, median (IQR)): 6.75

Molecule: C-GAESAPLVSSVQSPD [Gd4-scTESMA]
- accumulation within plaques ([5]; ApoE–/– mice, LGE MRI, in comparison to Gd4-TESMA): low/negligible accumulation within plaques

B1: Gd-TESMA (peptide)
peptide: VVGSPSAQDEASPLS
modifications: also: single Gd-DOTA monoamide unit conjugated, site not given here
notes: also called monomeric Gd-TESMA probe; source: bought: For Peptide Protein Research Limited (Fareham, UK)
- Kd [6]: 28 µM
- koff [6]: 0.023 s⁻¹
- kon [6]: 880 M⁻¹ s⁻¹

B2: Gd4-TESMA (peptide)
peptide: C((Gd-DOTA)4‑MI)VVGSPSAQDEASPLS
modifications: also: Gd(III) chelates, thiol/maleimide conjugation
notes: also called tetrameric Gd4-TESMA probe; source: synthetic peptide (Fmoc SPPS), reacted with [Gd-DOTA]4-MI, purified by semipreparative HPLC
- Kd [6]: 41 µM
